# Biological target: T1, PKD2, Q13563-1
# T1 sequence: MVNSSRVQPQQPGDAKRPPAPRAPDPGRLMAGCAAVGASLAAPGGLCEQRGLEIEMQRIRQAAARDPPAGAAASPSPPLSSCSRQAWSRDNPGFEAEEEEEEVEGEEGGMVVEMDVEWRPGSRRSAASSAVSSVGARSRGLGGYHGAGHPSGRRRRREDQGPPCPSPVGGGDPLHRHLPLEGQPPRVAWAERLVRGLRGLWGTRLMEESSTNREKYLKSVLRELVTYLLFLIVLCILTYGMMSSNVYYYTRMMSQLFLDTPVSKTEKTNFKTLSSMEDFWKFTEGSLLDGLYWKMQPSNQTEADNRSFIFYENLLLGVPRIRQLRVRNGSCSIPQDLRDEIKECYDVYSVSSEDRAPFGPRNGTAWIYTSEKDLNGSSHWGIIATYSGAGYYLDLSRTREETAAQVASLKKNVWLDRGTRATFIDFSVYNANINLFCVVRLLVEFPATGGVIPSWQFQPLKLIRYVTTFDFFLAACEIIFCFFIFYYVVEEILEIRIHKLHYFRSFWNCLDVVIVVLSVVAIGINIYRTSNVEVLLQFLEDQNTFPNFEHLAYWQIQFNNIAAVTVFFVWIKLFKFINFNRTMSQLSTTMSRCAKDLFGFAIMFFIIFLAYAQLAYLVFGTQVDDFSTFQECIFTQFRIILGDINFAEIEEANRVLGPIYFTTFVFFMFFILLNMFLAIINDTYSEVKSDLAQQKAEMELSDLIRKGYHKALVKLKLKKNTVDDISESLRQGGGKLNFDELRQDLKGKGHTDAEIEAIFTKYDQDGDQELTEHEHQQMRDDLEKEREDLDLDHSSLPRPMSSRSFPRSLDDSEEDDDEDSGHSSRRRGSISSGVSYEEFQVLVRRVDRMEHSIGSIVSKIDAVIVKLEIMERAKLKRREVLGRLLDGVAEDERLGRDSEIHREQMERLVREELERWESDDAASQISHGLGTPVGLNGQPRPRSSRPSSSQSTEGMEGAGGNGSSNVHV
row,effect of a mutation on the interaction,Substance
1,decreasing interaction strength,"Polycystin-1 (Mus musculus), O08852 L4229A;E4230A"
2,decreasing interaction strength,"Polycystin-1 (Mus musculus), O08852 L4229A;L4233A"

# Biological target: T1, PKD2, Q13563-1
# Remark: another data set of the same source
row,Substance,effect of a mutation on the interaction
1,Polycystin-1 (Homo sapiens) (from UniProt P98161-3) D4234A;Y4236A,decreasing interaction strength
2,Polycystin-1 (Homo sapiens) (from UniProt P98161-3) L4238A,decreasing interaction strength
3,Polycystin-1 (Homo sapiens) (from UniProt P98161-3) L4238A;L4242A,disrupting interaction strength
4,Polycystin-1 (Homo sapiens) (from UniProt P98161-3) L4238A;L4242A;L4245A,decreasing interaction strength
5,Polycystin-1 (Homo sapiens) (from UniProt P98161-3) V4217A;L4228A,decreasing interaction strength
6,Polycystin-1 (Homo sapiens) (from UniProt P98161-3) Y4236R,decreasing interaction strength

# Now from value to substance:
row,effect of a mutation on the interaction,Substance
1,decreasing interaction strength,Polycystin-1 (Homo sapiens) (from UniProt P98161-3) D4234R
2,decreasing interaction strength,Polycystin-1 (Homo sapiens) (from UniProt P98161-3) F4225A;L4228A
3,decreasing interaction strength,Polycystin-1 (Homo sapiens) (from UniProt P98161-3) F4225A;R4227A
4,decreasing interaction strength,Polycystin-1 (Homo sapiens) (from UniProt P98161-3) L4228A;N4229A
5,disrupting interaction strength,Polycystin-1 (Homo sapiens) (from UniProt P98161-3) L4238A;E4239A
